This data set can be described thus: amyloid nucleation score (Sup35N fusion, yeast selection) (log enrichment); library NNK3; higher = more nucleation; inactive = no reads after selection. The method in brief: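 Yeast lacking psi expressed peptides of 20 random codons fused to Sup35N, received 100 μM copper sulfate for 24 hours, and were then grown for 7 days at 30°C on medium lacking adenine and uracil. Illumina sequencing of input and output plasmid inserts provided the reads. Nucleation scores are DiMSum log enrichments of output over input, centred on the mode of non-aggregating sequences. Any sequence with under 100 input reads was excluded.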

± gives the uncertainty stated by the source.

For QIYSFFIWIEKTGVCRWLWA, the amyloid nucleation score entry is “inactive”.

In the case of YWVGEWLMCPYTR, the amyloid nucleation score result was “inactive”.

As to SRDFVKYISEERS, the amyloid nucleation score result is “inactive”.

For IHRMMAYDFCRNLYFSEQWG, the amyloid nucleation score entry is “inactive”. On to LVCNRWPNCANCRCRP, for which the amyloid nucleation score entry is “inactive”. With KACWLYLIFIFFGWVYSKTI, the amyloid nucleation score came out at 0.745 ± 0.25. Substance SYAQGH came in with an amyloid nucleation score of 0.901 ± 0.18. Substance VIGVNIWSCL yielded an amyloid nucleation score of 1.29 ± 0.1. As to ELLFIDGWKST, the amyloid nucleation score entry is “inactive”. The same measure for ESVNGTSFPVFIYHRTSFRL: 1.61 ± 0.069. The same measure for VFSFRTYNLYGEDNEQLLHW: “inactive”; for VLGDSNFF: “inactive”. With RSPTNV the entry was “inactive”; with WAGESLS, “inactive”. Turning to PRDCS, the amyloid nucleation score entry was “inactive”. With VIQGLYSSFMHVYG the entry was “inactive”.

With TGYSYFYGWMVTYATQSKRV, the amyloid nucleation score result is “inactive”. The same measure for SLFMMWLYVCQLYCLFDGIE: “inactive”; for LMVMGVSSCLTFAIDILRNM: 1.13 ± 0.16; for RKFTVSISRGNWSHAWTYSE: “inactive”. The same measure for KPGIIIVFVGHG: “inactive”; for ASLRYYGMAVVSSVYKMVVV: “inactive”; for DSFGLFCYTYLWCLWQANDK: 2.05 ± 0.097.

Regarding VAEEHSVLSCQDADFCASSL, the amyloid nucleation score entry is “inactive”. With SVRGITQLSSTLHVRLVITS the entry was “inactive”. The same measure for RDHSTMQTEVLEWSRNPSMG: “inactive”; for RYDWLLGSVWVFLLA: “inactive”. With GSTVEYTFGDWKYQDMSSVC the entry was “inactive”.

Regarding EQLFD, the amyloid nucleation score entry is “inactive”. With GECTWTDVPMANSPRFVSEY the entry was “inactive”. CRYDKSSLDY: the amyloid nucleation score entry is “inactive”. With KFSNSASFSGFYFNNYLSSQ the figure was 0.95 ± 0.096.

For the substance TPMWMGT, the amyloid nucleation score entry was “inactive”.

In turn, VNVRHTGSLTFFF had an amyloid nucleation score of 1.01 ± 0.12. With MCMLIYCYAQSLVMKMDSHY, the amyloid nucleation score entry is “inactive”. Consider FASYYHTVDRADFDDLDPAN, for which the amyloid nucleation score entry is “inactive”. For KANRFRVVMLGVDGVCAFQS, the amyloid nucleation score result was “inactive”. With EFCIRRIM the entry was “inactive”; with CRVFRNNDYSKVSFWLVSVF, “inactive”; with GANKVSNRRVMSSDPTSQCL, “inactive”. The same measure for VRDCTTDTQWERWVETLSPS: “inactive”; for SVYCYEAS: “inactive”; for TARPSNKMNHRECCTNKFFP: “inactive”. With KHLGKAKSSGST the entry was “inactive”. On to YDTHWTVCLLSTCLTL, for which the amyloid nucleation score entry is “inactive”. Take RHYKLGGSGTCDVSYGSCYD: the amyloid nucleation score result is “inactive”. Consider ERMRLNARFSTHLE, for which the amyloid nucleation score entry is “inactive”. With TSLFGIPQCRFRVRSWNDVV the entry was “inactive”. As for NLRSS, the amyloid nucleation score entry was “inactive”. With RVDWRNGRVRRHLRHVLRIN the entry was “inactive”; with SASCKYGVCLSDLLVSDWHY, “inactive”; with IEREMCTGNLVPLNAWKRFH, “inactive”. Regarding GHSGKVVL, the amyloid nucleation score entry is “inactive”. The same measure for GRLLRTMVD: “inactive”. With VYIWRIMTTEIWVRVTWYAG the entry was “inactive”; with QKRIQFTSECTRKRNFWLFS, “inactive”; with GLLVWQCMWGLDKKYLHSVY, “inactive”. Regarding THLVDYKLVL, the amyloid nucleation score entry was “inactive”. Regarding SDRYDCRDGSCFNRKVRYSL, the amyloid nucleation score result was “inactive”. The substance TGYCYMILLRNGVQVSVEGT yielded an amyloid nucleation score of 0.092 ± 0.81. Regarding LIYMLCYFRLLPTCGQVINR, the amyloid nucleation score entry is “inactive”. Turning to ERRASLGYNHIL, the amyloid nucleation score result was “inactive”. As for PTGLGTAYQLNAWTASFG, the amyloid nucleation score result is “inactive”. The same measure for LYTGYVLAIMYWAVLARENT: -1.45 ± 2.5. With IISMFYSSKA the entry was “inactive”. The same measure for IRLHLLLGFVV: “inactive”. On to YDLTFVGWMDYCNLPMVRLI, for which the amyloid nucleation score entry was “inactive”. The same measure for RLPRRSEDIKALRMDIRLYR: “inactive”. The same measure for AEWLSCLRWIGK: “inactive”; for YMGLTLSVMRPGMTYFPKMF: “inactive”. FWFWMIVDNRWYSLAVEARW had an amyloid nucleation score of -0.304 ± 0.8. The same measure for CVPCRQHTYSWDFVRVHLTV: “inactive”; for HIEVCGTLLYCGDRQISVNN: 0.49 ± 0.27; for ILISFNQLKP: 1.18 ± 0.13. The same measure for ISQLIEHRRAESCLRPKGRQ: “inactive”; for DMLHLWYLSVG: “inactive”.

On to AGTKSLRNYGWCLYDGGFYH, for which the amyloid nucleation score result is “inactive”. The same measure for TASVRVRFPLSFTPCLEVHP: “inactive”; for SGMDSKRKDSCLLCVHFHVS: “inactive”; for MHHVLYERERSY: “inactive”. Take NSVRYLTWVAFLVCLMAYML: the amyloid nucleation score entry was “inactive”. The same measure for SSLRR: “inactive”; for WYGLA: “inactive”; for SFPLSYSSYIRLRVFFVE: “inactive”. The same measure for WQCNCGASICASHKKCANMN: 0.128 ± 0.3; for YGSDGHHLA: “inactive”. Take CKSNKCSAVMVLVA: the amyloid nucleation score entry was “inactive”. The same measure for DAYGLYYTSYYPGT: “inactive”; for VFHRSSLNSSRAGWH: “inactive”; for YIRVNTILDLD: “inactive”. With MSIIKKIG the entry was “inactive”; with SAPRAEVSNRIK, “inactive”. Take DWNRLFRVD: the amyloid nucleation score result was “inactive”. For CLNGPFVCLKYYVCFIAMMF, the amyloid nucleation score entry is “inactive”.

Consider SLCSVLIMHPSNSDRF, for which the amyloid nucleation score came out at 0.101 ± 0.75. Consider SLRRKIGLLIFFDNLIF, for which the amyloid nucleation score result was “inactive”. The same measure for CICKFTDLMHTGACLNILSR: 1.58 ± 0.11; for VWVMSSWTVRIISPTVWMLV: “inactive”; for WVQVCCVNTNGRSFQLEGSI: 1.36 ± 0.097. Take RSKNWAVIMIGR: the amyloid nucleation score result is “inactive”.

Consider CTGCTFRYEKKDYNLGCLCK, for which the amyloid nucleation score entry was “inactive”. Substance APLYTANAMHSRCILSWVFL registered an amyloid nucleation score of 2.25 ± 0.082. On to CFELDVRDEA, for which the amyloid nucleation score result is “inactive”. The same measure for LLSLAYVMRYI: 1.38 ± 0.068; for GYWWELSSKVNVCAMMHRPW: “inactive”. The same measure for LMASWTVRTYHGFSISENRN: 0.312 ± 0.26. On to DMYVLLMRTQSLGMPLIGIS, for which the amyloid nucleation score result is “inactive”. With LYAKF the entry was “inactive”; with ATSTTSLRVNLDHCAETFQN, 0.238 ± 0.44. With HLTHFQQILRFNKAETCVRT the entry was “inactive”. The same measure for VSSKDGLFCCL: 0.209 ± 0.66.

In the case of TFEWCMPFFTNFSLMFFFYW, the amyloid nucleation score result was “inactive”.

As for DVLTVMSQLVVMKTL, the amyloid nucleation score entry is “inactive”. The same measure for NSFSLGNSLNPYKAAPRRML: “inactive”; for IMDDTSQSNRCYYEKVLCRG: 1.34 ± 0.092; for YSIVRGWMDARDLHMLHLEI: “inactive”.

In the case of RNTLARKFVIRFTIFNAWSN, the amyloid nucleation score turned out to be 1.28 ± 0.11. The substance NYWSTQLSIFCCKDCATTSA had an amyloid nucleation score of 2.42 ± 0.063. Substance DRHCLSL yielded an amyloid nucleation score of 0.582 ± 0.17. As to AEVPEFTLYVSFYSWVYFRL, the amyloid nucleation score result was “inactive”. With ISESN the entry was “inactive”; with YCVSGMVMCCH, “inactive”. With CTQGMVYIS the entry was “inactive”. With NYGTLMYTVL the entry was “inactive”; with TPSRREMDVCVFFSPFAMHM, 0.896 ± 0.095. For DVMRGIKYVRRVNAQLTGSS, the amyloid nucleation score entry was “inactive”. Substance HIVLVSRLHITAGGRF had an amyloid nucleation score of -0.179 ± 0.65. The same measure for FRSAN: “inactive”.

For the substance SPDHLGRLLY, the amyloid nucleation score entry was “inactive”. In the case of VQLGAD, the amyloid nucleation score entry was “inactive”. Regarding IQSKRRPSDCLPKS, the amyloid nucleation score result was “inactive”. For the substance CIRLRKANINRKDQKRGCMV, the amyloid nucleation score entry is “inactive”. On to CPVKHGGLHYSNQSYHSSGG, for which the amyloid nucleation score result is “inactive”. The same measure for RPNFDYTIWSMTNWILFTCD: “inactive”.
